The text below walks through data of PMC9734377 (Communications Biology, 2022).

In series [1] the target is T1, LdG6PD wt dimer (LdG6PD^Dimer) (Leishmania donovani, UniProt A2CIL3).
T1 construct: gene g6pdh
T1 sequence (A2CIL3 1-562): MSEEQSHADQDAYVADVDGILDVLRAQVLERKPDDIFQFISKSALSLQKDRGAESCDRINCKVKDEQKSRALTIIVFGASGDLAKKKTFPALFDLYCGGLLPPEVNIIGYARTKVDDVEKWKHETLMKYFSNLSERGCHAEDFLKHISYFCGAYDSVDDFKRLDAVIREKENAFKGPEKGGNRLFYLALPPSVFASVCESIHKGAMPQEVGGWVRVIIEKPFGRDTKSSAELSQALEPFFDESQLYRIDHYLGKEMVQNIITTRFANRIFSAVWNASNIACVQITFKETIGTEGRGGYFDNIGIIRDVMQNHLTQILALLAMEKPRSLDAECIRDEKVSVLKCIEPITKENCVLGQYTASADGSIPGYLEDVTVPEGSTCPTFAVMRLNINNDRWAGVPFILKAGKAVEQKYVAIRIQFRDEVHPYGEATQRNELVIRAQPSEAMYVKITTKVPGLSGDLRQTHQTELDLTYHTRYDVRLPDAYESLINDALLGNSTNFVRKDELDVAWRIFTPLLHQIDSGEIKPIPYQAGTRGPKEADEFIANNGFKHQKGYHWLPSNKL
Briefly: dead-end inhibition, Lineweaver-Burk. It is filed as biochemical. The following applies: 0-20 µM GlcN 6-P; competitive against G6P, not against NADP+; pH 7.5, 25 °C; oligomer fraction not told.

Series [2] concerns the target Leishmania donovani glucose 6-phosphate dehydrogenase wild type (Leishmania donovani). Briefly: SEC; HiLoad 16/60 Superdex 200, buffer A (500 mM NaCl, 50 mM Tris, pH 7.8), native conditions; for LdG6PD wt also 12-300 uM enzyme, 5 mM DTT, 2 mM H2O2, substrates (100 uM G6P, NADP+), 0.1-1 M NaCl, pH 4.8-7.8, all without change of the profile; self-association: monomers to dimer and dimers to tetramer. In general terms: Size exclusion chromatography separates by hydrodynamic size, large species first.

The target in series [3] is T1, LdG6PD wt dimer (LdG6PD^Dimer). Briefly: product inhibition, Lineweaver-Burk. Format: biochemical. The conditions noted are these: 0-80 µM NADPH; competitive against NADP+ (G6P 800 µM) and against G6P (NADP+ 200 µM); pH 7.5, 25 °C; oligomer fraction not told.
Series [4] addresses Leishmania donovani glucose 6-phosphate dehydrogenase truncation mutant lacking the first 59 N-terminal amino acids (Leishmania donovani). Briefly: SEC.
In series [5] the target is Leishmania donovani glucose 6-phosphate dehydrogenase C138S mutant (Leishmania donovani). Briefly: SEC.
The target of series [6] is Leishmania major glucose 6-phosphate dehydrogenase wild type (Leishmania major). Briefly: SEC; HiLoad 16/60 Superdex 200, buffer A (500 mM NaCl, 50 mM Tris, pH 7.8), native conditions; for LdG6PD wt also 12-300 uM enzyme, 5 mM DTT, 2 mM H2O2, substrates (100 uM G6P, NADP+), 0.1-1 M NaCl, pH 4.8-7.8, all without change of the profile; self-association: monomers to dimer and dimers to tetramer.

Series [7] relates to NC(=O)c1ccc[n+]([C@@H]2O[C@H](COP(=O)(O)OP(=O)(O)OC[C@H]3O[C@@H](n4cnc5c(N)ncnc54)[C@H](OP(=O)(O)O)[C@@H]3O)[C@@H](O)[C@H]2O)c1. Briefly: purified protein. It is filed as biochemical, Leishmania donovani. The conditions noted are these: 800 µM G6P, 50 mM Tris pH 7.5, 3.3 mM MgCl2, 25 °C, crystal ligand given as NADP(H), redox state open.
Substrate in series [8]: NC(=O)c1ccc[n+]([C@@H]2O[C@H](COP(=O)(O)OP(=O)(O)OC[C@H]3O[C@@H](n4cnc5c(N)ncnc54)[C@H](OP(=O)(O)O)[C@@H]3O)[C@@H](O)[C@H]2O)c1
Briefly: purified protein. The conditions noted are these: 800 µM G6P.

Substrate in series [9]: NC(=O)c1ccc[n+]([C@@H]2O[C@H](COP(=O)(O)OP(=O)(O)OC[C@H]3O[C@@H](n4cnc5c(N)ncnc54)[C@H](OP(=O)(O)O)[C@@H]3O)[C@@H](O)[C@H]2O)c1
Briefly: purified protein. It is filed as biochemical, Leishmania donovani. The conditions noted are these: 800 µM G6P, 50 mM Tris pH 7.5, 3.3 mM MgCl2, 25 °C, tetramer fraction.

“And” between values parts separate entries of the source, which are not always exact repeats. Identical values can stand only once.

With `N[C@H]1C(O)O[C@H](COP(=O)(O)O)[C@@H](O)[C@@H]1O` (stereo partly shown) [GlcN 6-P, glucosamine 6-phosphate], in series [1], the “dead-end inhibition, Lineweaver-Burk” value is “GlcN 6-P shows a competitive inhibition pattern towards G6P”.

Turning to “Leishmania donovani glucose 6-phosphate dehydrogenase wild type (enzyme)”, in series [2], the stoichiometry N (in general, a count of units in the complex or per binding partner) is 4 and 2.

Regarding `NC(=O)C1=CN([C@@H]2O[C@H](COP(=O)(O)OP(=O)(O)OC[C@H]3O[C@@H](n4cnc5c(N)ncnc54)[C@H](OP(=O)(O)O)[C@@H]3O)[C@@H](O)[C@H]2O)C=CC1` [NADPH], the “product inhibition, Lineweaver-Burk” value in series [3] was “NADPH was found to be a competitive inhibitor with respect to NADP^+ in LdG6PD”.

Turning to “Leishmania donovani glucose 6-phosphate dehydrogenase truncation mutant lacking the first 59 N-terminal amino acids (domain or fragment)”, the stoichiometry N in [4] is 2.

Regarding “Leishmania donovani glucose 6-phosphate dehydrogenase C138S mutant (enzyme)”, in series [5], the stoichiometry N is 2 and 4.

For “Leishmania major glucose 6-phosphate dehydrogenase wild type (enzyme)”, the stoichiometry N in series [6] was 2 and 4.

As to LdG6PD^60–562 (Leishmania donovani), in [7], the Km (commonly the concentration of substrate that gives half-maximal velocity) worked out at 14.3 ± 2.2 µM; the Vmax (commonly the rate approached at saturating substrate) is 233 µmol/min/mg; the kcat (as a rule, the number of substrate molecules converted per active site and unit of time at saturation) came out at 234 ± 18.8 s⁻¹; the kcat/Km (in general, the turnover number divided by the Michaelis constant) was found to be 1.7e+07 ± 2.5e+06 M⁻¹ s⁻¹.

B1: LmG6PD wt (Leishmania major) (protein)
chain: MSEEQSHADQDAYVADVDGILDVLRAEVLERKPDDVFQFISQSALSLQKDRGAESCDRINCKVTDEQKSRALTIIVFGASGDLAKKKTFPALFDLYCGGLLPPEVNVIGYARTKVDDAERWKRETLMTYFSNVPERACHAEDFLKHISYFCGSYDKVDDFKRLDAVIREKENAFKGPEKGGNRLFYLALPPSVFASVCESIHKGAMPQEVGGWARVIIEKPFGRDTKSSAELSRALEPFFDESQLYRIDHYLGKEMVQNIITTRFANRIFSAVWNSNNIACVQITFKETIGTEGRGGYFDGIGIIRDVMQNHLTQILALLAMEKPRSLDAECIRDEKVSVLKCIEPITKENCVLGQYTASADGSIPGYQEDVTVPEGSTCPTFAVMRLNINNDRWAGVPFILKAGKAVEQKYVAIRIQFKDEVHPYGEATQRNELVIRAQPSEAMYVKITTKVPGLSGDLRQTHQTELDLTYHTRYDVRLPDAYESLINDALLGNSTNFVRKDELDVAWRIFTPLLHQIDCGEIKPIPYQAGTRGPKEADEFITNNGFKHQKGYQWLPSNKL
Take B1: the Km in “purified protein [8]” (50 mM Tris pH 7.5, 3.3 mM MgCl2, 25 °C) was 11.4 ± 1.5 µM.

B2: LdG6PD wt dimer (LdG6PD^Dimer) (Leishmania donovani) (protein)
chain: T1 sequence (A2CIL3 1-562)
With B2, the Km in the series “purified protein [8]” (50 mM Tris pH 7.5, 3.3 mM MgCl2, 0.005% Tween, 1 mg/mL BSA, 25 °C, dimer fraction, crystal ligand given as NADP(H), redox state open) was 15.9 ± 1.1 µM.

B3: LdG6PD wt tetramer (LdG6PD^Tetramer) (Leishmania donovani) (protein)
chain: T1 sequence (A2CIL3 1-562)
For the molecule B3, in the series “purified protein [9]”, the Michaelis constant (Km) is 14.2 ± 0.9 µM, the maximal velocity (Vmax) worked out at 185 µmol/min/mg, the kcat turned out to be 204 ± 13.6 s⁻¹ and the kcat/Km is 1.49e+07 ± 3e+06 M⁻¹ s⁻¹.
